Laboratory results published in patent US8652790B2, “Conformational entropy in molecular recognition” (The Trustees of the University of Pennsylvania, priority 2007, dated 2014).
Read-outs that look alike come from different tables or passages of the source.

How the values were obtained:
[1] = target: T1, calcium-saturated calmodulin (CaM) (Homo sapiens, UniProt P0DP23); details: cited from earlier work; for −TΔSbind: Binding entropy at 308 K (Table 3), values cited per Table 2 footnotes; for −TΔSbinding^total: ITC, 308 K, from Marlow & Wand or Frederick et al.
T1 construct: made in house

[2] = target: T1, calcium-saturated calmodulin (CaM); test: Deuterium NMR relaxation of methyl-bearing side chains of target domains bound to CaM; details: residue L20 of the bound target domain
Excerpt: Using deuterium NMR relaxation methods, fast motion of the methyl-bearing side-chains of the target domains in the six CaM complexes were examined. Muhandiram, D. R. et al., Measurement of H-2 T-1 and T-1p relaxation-times in uniformly C-13-Labeled and fractionally H-2-labeled proteins in solution. J. Am. Chem. Soc. 117, 11536-11544 (1995).
All bound target domain methyl resonances are well resolved in ^13C-single quantum heteronuclear correlation (^13C-HSQC) NMR spectra and deuterium relaxation parameters could be measured with high precision. The 76 methyl order parameters from 52 residues of the target domains in the six complexes are heterogeneously distributed with O^2axis values ranging from 0.13 to 0.95 (FIG. 5). […]
O^2axis parameters were determined from T1 and T1p deuterium relaxation (Muhandiram, D. R. et al. Measurement of H-2 T-1 and T-1p relaxation-times in uniformly C-13-Labeled and fractionally H-2-labeled proteins in solution. J. Am. Chem. Soc. 117, 11536-11544 (1995)) measured at two magnetic fields. Rotational correlation times and O^2NH were determined from ^15N relaxation (Farrow, N. A. et al. Backbone dynamics of a free and a phosphopeptide-complexed Src homology-2 domain studied by ^15N NMR relaxation. Biochemistry 33, 5984-6003 (1994)) obtained at two magnetic fields. O^2CαCO parameters were determined by transverse cross-correlated relaxation. […]

[3] = target: T1, calcium-saturated calmodulin (CaM); test: Isothermal titration calorimetry of target domain peptides binding to calcium-saturated calmodulin; details: for −TΔSbind: Binding entropy at 308 K (Table 3); for −TΔSbinding^total: ITC, 308 K, pH 6.5, 100 mM KCl, 6 mM CaCl2, standard errors
Excerpt: NMR methods are herein used to determine the dynamic response of human CaM (GenBank AAD45181) to the binding of six peptides representing the calmodulin-binding domains of the smooth muscle myosin light chain kinase (smMLCK; AAA69964) (Lukas, T. J. et al. Calmodulin binding domains: characterization of a phosphorylation and calmodulin binding site from myosin light chain kinase. Biochemistry 25, 1458-1464 (1986)), the neuronal and endothelial nitric oxide synthases (nNOS and eNOS; AAB60654 and AAH63294, respectively) (Zhang, M. & Vogel, H. J. Characterization of the calmodulin-binding domain of rat cerebellar nitric oxide synthase. J. Biol. Chem. 269, 981-985 (1994)), the calmodulin kinase kinase (CaMKKα; EDM05132) (Tokumitsu, H. et al. Calcium/calmodulin-dependent protein kinase kinase: identification of regulatory domains. Biochemistry 36, 12823-12827 (1997)), the calmodulin kinase I (CaMKI; EAW63990) Goldberg, J., Nairn, A. C. & Kuriyan, J. Structural basis for the autoinhibition of calcium/calmodulin-dependent protein kinase I. Cell 84, 875-887 (1996)) and the phosphodiesterase (PDE; AAD40738 (SEQ ID NO: 8)) Goldberg, J., Nairn, A. C. & Kuriyan, J. Structural basis for the autoinhibition of calcium/calmodulin-dependent protein kinase I. Cell 84, 875-887 (1996)).
Four of the peptides have been found previously by isothermal titration calorimetry to have roughly the same affinity for calmodulin but with widely different thermodynamic parameters defining the free energy of association. Wintrode, P. L. & Privalov, P. L. Energetics of target peptide recognition by calmodulin: a calorimetric study. […] J. Biol. Chem. 276, 14083-14091 (2001). The present study repeats isothermal titration calorimetry measurements at a temperature (35° C.) that is more optimal for solution NMR spectroscopy, and characterizes the thermodynamics of binding of two additional domains (FIG. 1). Shown in FIG. 1 are the Gibbs free energy (ΔG), enthalpy (ΔH) and entropy (−TΔS) for the formation of the six calcium-saturated CaM-peptide complexes at 35° C., as determined by isothermal titration calorimetry.
Calmodulin and synthetic peptides and complexes were prepared as described previously (Kranz, J. K. et al. A direct test of the reductionist approach to structural studies of calmodulin activity: relevance of peptide models of target proteins. J. Biol. Chem. 277, 16351-16354 (2002)) in 20 mM imidazole (pH 6.5), 100 mM KCl, 6 mM CaCl2 and 0.02% (w/v) NaN3. NMR samples were slightly (˜10%) over-titrated with peptide to ensure full complex formation. […] Data were obtained with a VP-isothermal titration calorimeter (Microcal) and analysed with the Origin (v.5) software.

Substance | −TΔSbind [1] | −TΔSbinding^total [1] | O^2axis [2] | −TΔSbind [3] | −TΔSbinding^total [3]
(COOH-FPNGFSRKRLMSKVLIVTTWSPLL [CaMKKα(p)] | +90.0 ± 1.0 kJ/mol | +90.0 ± 1.0 kJ/mol |  |  | 
AKSKWKQAFNATAVVRHMRKLQ (listed as Homo sapiens) [CaMKI(p)] | +69.6 ± 0.9 kJ/mol | +69.6 ± 0.9 kJ/mol |  |  | 
QTEKMWQRLKGILRSLVKQ [PDE(p)] |  |  | 0.165 | +33.9 ± 0.7 kJ/mol | +33.9 ± 0.7 kJ/mol
RKKTFKEVANAVKISASLMG [eNOS(p)] |  |  |  | +25.7 ± 0.8 kJ/mol | +25.7 ± 0.8 kJ/mol
